We go through six substances from PMC8408612.

Holding throughout (experiment): co-IP
The target of experiment [1] is endogenous dynein intermediate chain (DIC) of COS7 cells (African green monkey (endogenous in COS7)).
The target in experiment [2] is Flag-CRMP4 (UniProt Q14195).
The target in experiment [3] is endogenous mouse dynein intermediate chain (DIC) (mouse (endogenous in sciatic nerve and primary motor neurons)) (UniProt O88485).
UniProt O88485, sequence (O88485 whole entry): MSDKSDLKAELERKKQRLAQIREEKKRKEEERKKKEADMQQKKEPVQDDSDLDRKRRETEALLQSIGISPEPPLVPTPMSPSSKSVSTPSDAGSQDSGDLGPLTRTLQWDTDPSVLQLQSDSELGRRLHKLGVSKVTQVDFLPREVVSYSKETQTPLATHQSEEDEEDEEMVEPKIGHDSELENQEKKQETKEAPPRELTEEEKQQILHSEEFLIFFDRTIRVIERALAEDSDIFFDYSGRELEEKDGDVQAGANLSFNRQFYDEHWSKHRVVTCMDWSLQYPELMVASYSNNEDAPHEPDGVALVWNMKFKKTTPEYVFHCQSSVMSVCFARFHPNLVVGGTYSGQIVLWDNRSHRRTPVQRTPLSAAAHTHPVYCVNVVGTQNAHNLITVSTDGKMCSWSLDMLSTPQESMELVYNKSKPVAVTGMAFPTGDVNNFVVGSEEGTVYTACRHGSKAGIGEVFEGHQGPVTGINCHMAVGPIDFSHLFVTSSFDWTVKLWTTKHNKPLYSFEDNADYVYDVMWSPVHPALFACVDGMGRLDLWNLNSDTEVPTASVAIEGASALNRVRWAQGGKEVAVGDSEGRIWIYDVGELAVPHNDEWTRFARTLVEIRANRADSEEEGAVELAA

Flag-CRMP4, sequence (Q14195 whole entry): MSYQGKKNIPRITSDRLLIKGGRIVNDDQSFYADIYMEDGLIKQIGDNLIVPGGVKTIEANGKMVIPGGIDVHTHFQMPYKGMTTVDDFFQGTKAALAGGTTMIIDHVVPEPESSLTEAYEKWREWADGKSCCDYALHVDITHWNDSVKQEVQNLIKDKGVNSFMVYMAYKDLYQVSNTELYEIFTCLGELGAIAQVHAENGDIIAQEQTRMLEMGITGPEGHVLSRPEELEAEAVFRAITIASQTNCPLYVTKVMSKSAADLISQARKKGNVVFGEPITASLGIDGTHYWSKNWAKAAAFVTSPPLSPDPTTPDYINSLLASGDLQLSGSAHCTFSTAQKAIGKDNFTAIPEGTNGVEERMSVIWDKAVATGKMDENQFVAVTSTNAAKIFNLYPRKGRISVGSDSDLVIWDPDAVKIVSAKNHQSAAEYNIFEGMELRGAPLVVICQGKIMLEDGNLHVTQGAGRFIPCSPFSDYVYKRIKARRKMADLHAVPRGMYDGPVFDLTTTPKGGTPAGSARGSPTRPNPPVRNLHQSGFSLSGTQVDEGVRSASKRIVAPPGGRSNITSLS

As to “CRMP4 (transfected together with AAV9-GFP or AAV9-GFP-50aa, Figure 4H) (from UniProt Q14195 1-570) (natural protein)”, in experiment [1], the CRMP4 band normalised to DIC band (mean), cells with GFP-50aa was determined as 0.54 and the CRMP4 band normalised to DIC band (mean), control cells with GFP was found to be 1.
The substance “Flag-CRMP4 (from UniProt Q14195 1-570) (natural protein)” came in with a CRMP4 band normalised to DIC band (mean) in experiment [1] of 1.
In experiment [2], “dynactin (p150), endogenous in COS7 cells (natural protein)” came in with a dynactin band normalised to Flag-CRMP4 band (mean), no peptide (Fig 4E) of 0.77; a dynactin band normalised to Flag-CRMP4 band (mean), no peptide (Fig 4G) of 1.92; a dynactin band normalised to Flag-CRMP4 band (mean), with peptide-1 of 1.44; a dynactin band normalised to Flag-CRMP4 band (mean), with peptide-2 of 1.34. Further, in experiment [2], the dynactin band normalised to Flag-CRMP4 band (mean), with peptide-3 turned out to be 1.8; the dynactin band normalised to Flag-CRMP4 band (mean), with peptide-4 was 1.13; the dynactin band normalised to Flag-CRMP4 band (mean), with peptides 1-4 (Fig 4E) came out at 0.17.
In experiment [3], “endogenous mouse CRMP4 (from UniProt Q62188 1-570) (natural protein)” yielded a CRMP4 band normalised to DIC band (mean), SOD1G93A sciatic nerve of 1.48 and a CRMP4 band normalised to DIC band (mean), WT sciatic nerve of 0.28.
As to “full-length GFP-CRMP4 (from UniProt Q14195 1-570) (natural protein)”, the CRMP4 band co-precipitated with DIC (densitometry, mean) in experiment [1] worked out at 1.47.
The substance “mutated Flag-CRMP4-I141V (from UniProt Q14195 1-570) (natural protein)” yielded a CRMP4 band normalised to DIC band (mean) in experiment [1] of 1.62.
